From doi:10.1101/2021.02.24.432656 (bioRxiv, 2021)

Target: Flag-importin α1 (human, UniProt P52292 1-529)
Assay: pull-down

B1: GST-GFP fused ORF6 full-length protein (natural protein)
chain: MFHLVDFQVTIAEILLIIMRTFKVSIWNLDYIINLIIKNLSKSLTENKYSQLDEEQPMEID
B1: binds.
